Assay results from patent CN109666070A (UNIV TSINGHUA, dated 2019).

Legend:
生物素标记的RBD融合蛋白 [1] = biological target: T1, 生物素标记的RBD融合蛋白 (MERS-CoV, UniProt K9N5Q8 367-606); experiment: affinity measurement with biotin-labelled RBD fusion protein; method not stated
生物素标记的RBD融合蛋白 [2] = biological target: T1, 生物素标记的RBD融合蛋白; experiment: as above; remark: listed apart in the source

B1: 单克隆抗体MERS-4 (antibody, V domains shown)
VH: EVQLVESGGGLVQPGRSLRLSCAASGFTFSNYAMYWVRQAPGKGLEWVALISYDISTDYYADSVKGRFTISRDNSKNTIYLQMNNLRTEDTALYYCAGNDYWGQGTLVTVSS
VL: QSVLTQSPSASGTPGQRVTISCSGSSSNIGNNYVYWYQQLPGTAPKLLIYWNDQRPSGVPDRFSGSKSGTSASLAISGLRSEDEADYYCAAWDDSLSGAVFGGGTQLTVLG
- fold of Kd against that of MERS-4V2 (生物素标记的RBD融合蛋白 [1]): 1.71 fold
- Ka (生物素标记的RBD融合蛋白 [2]): 8e+08 M⁻¹
- Kd (生物素标记的RBD融合蛋白 [2]): 1.25 nM
- koff (生物素标记的RBD融合蛋白 [2]): 0.00101 s⁻¹
- kon (生物素标记的RBD融合蛋白 [2]): 805000 M⁻¹ s⁻¹
